# In publication PMC5993831 (2018):
# Target: PD-L1 (Mus musculus, UniProt Q9EP73)
# Sequence (Q9EP73 19-239): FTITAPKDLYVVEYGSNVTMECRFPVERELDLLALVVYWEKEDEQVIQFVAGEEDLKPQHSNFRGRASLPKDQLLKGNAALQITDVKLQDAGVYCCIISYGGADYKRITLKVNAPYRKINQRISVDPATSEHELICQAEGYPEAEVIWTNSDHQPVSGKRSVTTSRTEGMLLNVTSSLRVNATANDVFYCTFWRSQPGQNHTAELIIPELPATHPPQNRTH
binder,measurement,value
"PD-L1 trap (trimeric PD-1 ECD fused to CMP1 trimerization domain) 21-150 (protein, trimeric fusion with mouse CMP1 residues 458-500 via hinge linker, His6 tag) SGWLLEVPNGPWRSLTFYPAWLTVSEGANATFTCSLSNWSEDLMLNWNRLSPSNQTEKQAAFCNGLSQPVQDARFQIIQLPNRHDFHMNILDTRRNDSGIYLCGAISLHPKAKIEESPGAELVVTERILE",Kd,0.219 nM
